Test results: publication PMC12280157
Each block holds one binder with its values, some of them ahead of it.

Assays:
[1] = target: APLNR(K235)-cpGFP expressed in zebrafish embryos (human) (UniProt P35414)
[2] = target: APLNR(K235)-cpGFP expressed in zebrafish embryos (human) (UniProt P35414); remark: listed apart in the source
[3] = target: APLNR(K235)-cpGFP expressed in zebrafish embryos (human) (UniProt P35414); remark: listed apart in the source
[4] = target: APLNR(F233)-cpGFP (human) (UniProt P35414)
[5] = target: APLNR(K235)-cpGFP (human) (UniProt P35414)

cpGFP fluorescence intensity of the biosensor in zebrafish embryos at 6 hpf, after heat shock-induced ubiquitous apln overexpression, against wildtype siblings [1]: 27 % increase | cpGFP fluorescence intensity of the biosensor in intersegmental vessels of zebrafish embryos at 28 hpf, after heat shock-induced apln overexpression, against control siblings [2]: 250 % increase | cpGFP fluorescence intensity of single cells at 1 to 5 cell distances from an apln-expressing cell, zebrafish embryos at 6 hpf; reduction against distance 1 [3]: 23 % reduction
B1: zebrafish Apelin (ligand)
chain: GPMASTEHSKEIEEVGSMRTPLRQNPARAGRSQRPAGWRRRRPRPRLSHKGPMPF

EC50 of the increase of cpGFP fluorescence (conformational change of the biosensor), stable HEK293T cells, 37 °C [4]: 7 nM | EC50 of the increase of cpGFP fluorescence (conformational change of the biosensor), stable HEK293T cells, 37 °C [5]: 8 nM
Binder: QRRCMPLHSRVPFP [Apela(19-32)]

cpGFP fluorescence intensity of the biosensor in zebrafish embryos at 6 hpf, after heat shock-induced ubiquitous apela overexpression, against wildtype siblings [1]: 27 % increase
Binder: DKHGTKHDFLNLRRKYRRHNCPKKRCLPLHSRVPFP (ligand) [zebrafish Apela]
